Patent publication US20250296994A1 (SYSMEX, published 2025)

Legend:
[1] = molecular target: T1, recombinant Crtac1B fragment #6 (human, UniProt Q9NQ79 28-606); test: antigen immobilized ELISA, hybridoma culture supernatant, color development at 655 nm same as plate without antigen
T1 construct: also called fCrtac1B (1-607)
T1 sequence: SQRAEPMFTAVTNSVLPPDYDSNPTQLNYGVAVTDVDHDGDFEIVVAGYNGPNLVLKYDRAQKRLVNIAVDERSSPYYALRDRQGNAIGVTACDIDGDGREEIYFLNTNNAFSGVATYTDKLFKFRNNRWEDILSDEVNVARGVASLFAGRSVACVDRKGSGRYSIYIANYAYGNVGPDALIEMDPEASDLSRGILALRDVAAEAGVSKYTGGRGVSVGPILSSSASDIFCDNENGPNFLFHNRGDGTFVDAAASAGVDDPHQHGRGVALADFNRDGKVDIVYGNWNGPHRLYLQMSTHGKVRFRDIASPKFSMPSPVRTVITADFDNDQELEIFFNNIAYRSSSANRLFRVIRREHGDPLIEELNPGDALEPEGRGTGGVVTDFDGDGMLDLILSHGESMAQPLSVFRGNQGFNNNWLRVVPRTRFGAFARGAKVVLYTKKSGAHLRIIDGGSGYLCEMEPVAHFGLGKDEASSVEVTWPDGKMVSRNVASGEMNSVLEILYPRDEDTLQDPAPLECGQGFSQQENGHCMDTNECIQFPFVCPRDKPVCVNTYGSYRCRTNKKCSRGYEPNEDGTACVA
Method: (§1) A positive antigen (50 μL) and a negative control (50 μL) were added to each well of a 96 well plate, respectively. Then, the plate was incubated at 4° C. overnight, and the positive antigen and the negative control were immobilized in the well to obtain an antigen immobilized plate. Each well was washed twice with a washing solution (250 μL, 0.05% Tween (registered trademark) 20/20 mM potassium phosphate buffer (pH 7.4), 150 mM NaCl). To each well was added a blocking buffer (250 μL, 5% skim milk/20 mM potassium phosphate buffer (pH 7.4), 150 mM NaCl), and blocked at room temperature for 90 minutes. Culture supernatant (50 μL) of each hybridoma selected by primary screening was added to each well, and the cells were incubated at 37° C. for 1 hour. Each well was washed three times with a washing solution (250 μL). The HRP-labeled anti-mouse IgG antibody (MBL, product number 330) was diluted 1:1,000 with dilution buffer II (1% skim milk/20 mM potassium phosphate buffer (pH 7.4), 150 mM NaCl). A solution (50 μL) of this labeled antibody was added to each well, and the well was incubated at 37° C. for 1 hour. Each well was washed five times with a washing solution (250 μL). Chemical chromogenic substrate solutions (Bio-Rad, TMB Peroxidase EIA Substrate Kit) were added to respective wells at 50 μL, and the plate was allowed to stand at room temperature under shading for 30 minutes. The plate was set in a microplate reader (Thermo Fisher Scientific, Varioskan (registered trademark) Flash), and the color development intensity at 655 nm was measured for each well.
(§2) Reactivity of the monoclonal antibody contained in the culture supernatant of the hybridomas of clones 1B4 and 15C2 to the antigen was confirmed by ELISA using the 7 recombinant Crtac1B fragments described above. A specific operation was the same as that of the antigen immobilized ELISA method of Example 1. For comparison, ELISA was performed in the same manner using a 96 well plate in which no antigen was immobilized.
(§3) In addition, as to these monoclonal antibodies, the color development intensity when the recombinant Crtac1B fragments of #6 and #7 were used was substantially the same as that when a plate without immobilizing the antigen was used.

[2] = molecular target: T2, recombinant Crtac1B fragment #7 (negative control) (human, UniProt Q9NQ79 28-606); test: as above
T2 construct: also called fCrtac1B (1-606)
T2 sequence: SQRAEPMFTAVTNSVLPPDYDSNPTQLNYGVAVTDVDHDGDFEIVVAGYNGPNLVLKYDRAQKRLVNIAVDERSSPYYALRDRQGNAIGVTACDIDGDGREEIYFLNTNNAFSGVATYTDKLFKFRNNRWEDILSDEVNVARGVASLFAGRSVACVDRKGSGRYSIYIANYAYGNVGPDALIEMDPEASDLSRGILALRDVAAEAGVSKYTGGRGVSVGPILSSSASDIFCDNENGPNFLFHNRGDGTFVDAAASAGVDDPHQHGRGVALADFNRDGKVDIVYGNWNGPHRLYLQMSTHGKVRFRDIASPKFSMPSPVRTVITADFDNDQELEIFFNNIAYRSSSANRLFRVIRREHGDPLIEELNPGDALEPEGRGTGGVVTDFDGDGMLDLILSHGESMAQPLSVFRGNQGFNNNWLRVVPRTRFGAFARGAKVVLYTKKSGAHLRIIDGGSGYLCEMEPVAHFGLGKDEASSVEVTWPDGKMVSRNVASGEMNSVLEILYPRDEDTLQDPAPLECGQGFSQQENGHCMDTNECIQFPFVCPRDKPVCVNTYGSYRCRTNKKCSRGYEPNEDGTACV
Method: as §1, §2, §3

[3] = molecular target: T3, human Crtac1A (human, UniProt Q9NQ79 28-661); test: immunoprecipitation from human CSF and serum, then immunoblotting (Wes)
T3 construct: Recombinant protein (IB control sample) or native protein in human CSF and serum; also called rCrtac1A
T3 sequence: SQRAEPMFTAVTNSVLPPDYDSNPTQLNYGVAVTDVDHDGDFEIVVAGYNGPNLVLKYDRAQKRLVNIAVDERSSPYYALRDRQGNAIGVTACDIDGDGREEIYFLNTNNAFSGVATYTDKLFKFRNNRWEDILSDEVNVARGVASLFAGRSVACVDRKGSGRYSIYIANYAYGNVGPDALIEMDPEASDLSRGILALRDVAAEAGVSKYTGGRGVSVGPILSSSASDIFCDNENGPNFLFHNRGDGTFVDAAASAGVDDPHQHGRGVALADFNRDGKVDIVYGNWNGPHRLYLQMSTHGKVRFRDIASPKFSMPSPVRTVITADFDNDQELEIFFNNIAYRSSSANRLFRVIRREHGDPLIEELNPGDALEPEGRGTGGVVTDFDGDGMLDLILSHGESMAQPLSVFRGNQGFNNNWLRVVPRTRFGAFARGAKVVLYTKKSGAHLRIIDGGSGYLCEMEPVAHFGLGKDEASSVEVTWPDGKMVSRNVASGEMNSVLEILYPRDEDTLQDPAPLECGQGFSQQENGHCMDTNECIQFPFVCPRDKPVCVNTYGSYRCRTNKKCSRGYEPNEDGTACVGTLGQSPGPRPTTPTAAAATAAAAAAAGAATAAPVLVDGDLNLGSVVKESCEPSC
Method: For human CSF and human serum, immunoprecipitation using a monoclonal antibody purified from the culture supernatant of hybridomas of clones 1B4 and 15C2 was performed, and IB analysis by Wes was performed. For comparison, immunoprecipitation (IP) using an anti-hCrtac1 antibody (RD) and IB analysis using an anti-rat LOTUS antibody (ITM, 45-12C) were performed.
As a sample, CSF (300 μL) and serum (500 μL) were used per antibody. Each sample and protein G sepharose were mixed and rotated at 4° C. for 1 hour to remove contaminants that non-specifically bind to protein G from each sample in advance. Protein G solid phase-treated magnetic particles (60 μL, Veritas, Dynabeads (registered trademark) Protein G) were dispensed into 1.5-mL tubes, and washed twice with dilution buffer III (500 μL, 0.02% Tween (registered trademark) 20/PBS (pH 7.4)). Magnetic collection was performed to remove the supernatant, and each antibody (24 μg) and the above dilution buffer III (200 μL) were added to the magnetic particles. The tube was stirred at room temperature for 1 hour, and then collected to remove the supernatant. The magnetic particles were washed five times with the above dilution buffer III (300 μL), and then collected to remove supernatant. Each sample from which impurities were removed was added to the magnetic particles, and the tube was stirred at room temperature for 5 hours. […]

Measured: binding result

B1: monoclonal antibody derived from the hybridoma of clone 1B4 (antibody, mouse IgG1, kappa, V domains shown)
VH: EVQLQQFGAELVKPGASVKISCKASGYTFTDYNMDWVKQSHGKSLEWIGDINPNYDSSSYNQKFKGKATLTVDKSSSTAYMELRSLTSEDTAVYYCTRSGGTYWGQGTLVTVSA
VL: DIQMNQSPSSLSASLGDTITITCHASQNINVWLSWYQQKPGNIPKLLIYKASNLHTGVPSRFSGSGSGTGFSLTISSLQPEDIATYYCQQAQSYPRTFGGGTKLEIKR
notes: It is kept apart because the two clones were tested separately; Mouse IgG1; Leader ranges were derived as for m1
no binding: [1] | [2] | [3]
